Laboratory results as given in the supplement of paper PMC9233669.
This sample holds only a part of the variants without activity.

Columns and labels:
[1] = test system: biotinyl-Met-oxazolone; assay: self-aminoacylation, catalytic enhancement (BMO) (fold over background); higher = more active; k-Seq, kA / k0A0; sequences stand for … in GGGAAUGGAUCCACAUCUACGAAUUC…UUCACUGCAGACUUGACGAAGCUG
Procedure, shortened: (§1)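 Mutagenized RNA pools with a 21-nt variable region (0.43 μM) were reacted with each biotinyl-aminoacyl-oxazolone at 2–1250 μM for 90 minutes at room temperature, in 50 μL HEPES/NaCl/KCl/MgCl2/CaCl2 buffer containing 5% acetonitrile at pH 6.9–7.0. RNA captured on streptavidin was quantified by triplicate qPCR and by Illumina sequencing. The fraction reacted for each sequence was fit to a pseudo-first-order model with bootstrapping, and catalytic enhancement is the median kA divided by the uncatalyzed rate, taken as the low-activity peak of a bimodal Gaussian fit.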

[2] = test system: biotinyl-Trp-oxazolone; assay: self-aminoacylation, catalytic enhancement (BWO) (fold over background); higher = more active; k-Seq, kA / k0A0; sequences stand for … in GGGAAUGGAUCCACAUCUACGAAUUC…UUCACUGCAGACUUGACGAAGCUG
Procedure, shortened: as §1

[3] = test system: biotinyl-Phe-oxazolone; assay: self-aminoacylation, catalytic enhancement (BFO) (fold over background); higher = more active; k-Seq, kA / k0A0; sequences stand for … in GGGAAUGGAUCCACAUCUACGAAUUC…UUCACUGCAGACUUGACGAAGCUG
Procedure, shortened: as §1

[4] = test system: biotinyl-Val-oxazolone; assay: self-aminoacylation, catalytic enhancement (BVO) (fold over background); higher = more active; k-Seq, kA / k0A0; sequences stand for … in GGGAAUGGAUCCACAUCUACGAAUUC…UUCACUGCAGACUUGACGAAGCUG
Procedure, shortened: as §1

[5] = test system: biotinyl-Leu-oxazolone; assay: self-aminoacylation, catalytic enhancement (BLO) (fold over background); higher = more active; k-Seq, kA / k0A0; sequences stand for … in GGGAAUGGAUCCACAUCUACGAAUUC…UUCACUGCAGACUUGACGAAGCUG
Procedure, shortened: as §1

[6] = test system: biotinyl-Ile-oxazolone; assay: self-aminoacylation, catalytic enhancement (BIO) (fold over background); higher = more active; k-Seq, kA / k0A0; sequences stand for … in GGGAAUGGAUCCACAUCUACGAAUUC…UUCACUGCAGACUUGACGAAGCUG
Procedure, shortened: as §1

Sequence | self-aminoacylation [1] | self-aminoacylation [2] | self-aminoacylation [3] | self-aminoacylation [4] | self-aminoacylation [5] | self-aminoacylation [6]
AUUCACCUAGGUCCUAGGGUG [Fam2.2 aminoacylation ribozyme variant] | 2.55 | 3.15 | 4.72 | 1.75 | 4.26 | 2.06
AUGCAUCUAGGUCAUCGGGUG [Fam2.2 aminoacylation ribozyme variant] | 8.33 | 9.62 | 57 | 5.41 | 9.38 | 5.83
AUUCACCUAGGUCAUCGGGGG [Fam2.2 aminoacylation ribozyme variant] | 6.96 | 5.49 | 32.6 | 4.28 | 9.91 | 4.62
AUGUCUGCUAAUAGUCGCAAG [Fam3.1 aminoacylation ribozyme variant] | 2.25 | 9.53 | 35.5 | 1.56 | 1.74 | 1.91
CUACUUCAAACAAUCGCUCAG [Fam1A.1 aminoacylation ribozyme variant] | 0.679 | 0.671 | 1 | 0.689 | 0.52 | 0.884
CAGCACUUCAAGCAAUCGGUC [Fam1B.1 aminoacylation ribozyme variant] | 1.79 | 22.1 | 34.4 | 1.55 | 2.33 | 1.67
GCACACUUCAAUCAAUCGGUC [Fam1B.1 aminoacylation ribozyme variant] | 1.58 | 26.4 | 34.4 | 1.69 | 1.98 | 1.73
AUGCACCUCGGUCAUCGGGUG [Fam2.2 aminoacylation ribozyme variant] | 5.38 | 6.81 | 32.6 | 3.86 | 6.47 | 4.1
AGUCACCUAGGUCAUUGGGUG [Fam2.2 aminoacylation ribozyme variant] | 4.22 | 3.42 | 25.8 | 3.26 | 4.04 | 3.03
AAGUUUGCCAAUAGUCGAAAG [Fam3.1 aminoacylation ribozyme variant] | 1.44 | 1.5 | 0.727 | 1.02 | 0.911 | 1.05
CUACCUCAAACGAUCGGUCUG [Fam1A.1 aminoacylation ribozyme variant] | 1 | 0.954 | 1.42 | 0.761 | 1.03 | 0.987
AUUCACCUAGGUCAUAGGGUG [Fam2.2 aminoacylation ribozyme variant] | 1.75 | 1.49 | 2.06 | 1.35 | 2.06 | 1.39
AUUAUCCUGGUCAUCGAGUGG [Fam2.1 aminoacylation ribozyme variant] | 5.06 | 4.05 | 6.09 | 2.27 | 5.03 | 2.19
CCACAGUUCACGCAAUCGGUC [Fam1B.1 aminoacylation ribozyme variant] | 1.51 | 2.1 | 3.2 | 1.86 | 1.73 | 1.45
GUUCACCUAGGCCAUCGGGUG [Fam2.2 aminoacylation ribozyme variant] | 3.77 | 3.64 | 25.4 | 3.86 | 3.61 | 3.17
CCACACUUCAAGCAAUAGGCC [Fam1B.1 aminoacylation ribozyme variant] | 0.9 | 0.71 | 0.88 | 1.04 | 1.05 | 0.939
AUCCACUUAGGUCAUCGGGUG [Fam2.2 aminoacylation ribozyme variant] | 6.88 | 7.26 | 63.8 | 4.85 | 8.6 | 5.19
CCACACUUCUAGCAAUCGGUC [Fam1B.1 aminoacylation ribozyme variant] | 0.611 | 0.616 | 0.957 | 0.852 | 0.624 | 0.771
CCACACUUCAAGUAGUCGGUC [Fam1B.1 aminoacylation ribozyme variant] | 0.857 | 0.919 | 0.856 | 0.865 | 0.92 | 0.96
AUUCACCCAGGUCCUCGGGUG [Fam2.2 aminoacylation ribozyme variant] | 5.45 | 5.85 | 35.5 | 3.89 | 6.67 | 3.22
AAGUAUGCUGAUAGUCGCAAG [Fam3.1 aminoacylation ribozyme variant] | 1.94 | 1.96 | 1.92 | 1.65 | 1.91 | 1.84
CUACUUCAGACAAUCGGUCUG [Fam1A.1 aminoacylation ribozyme variant] | 0.758 | 0.857 | 1.19 | 0.822 | 0.807 | 0.782
GUUACCCUGGUCAUCGAGCGA [Fam2.1 aminoacylation ribozyme variant] | 4.51 | 4.27 | 5.54 | 3.46 | 4.14 | 2.84
AAGUUUGCUAAUAUUCGCAAU [Fam3.1 aminoacylation ribozyme variant] | 1.11 | 1.33 | 1.32 | 1.05 | 1.16 | 1.31
CUACUUCAAGCAAUCGGGCUG [Fam1A.1 aminoacylation ribozyme variant] | 1.8 | 3.87 | 3.43 | 1.61 | 2.58 | 2.01
